We go through 7 sequences from the Immune Epitope Database (IEDB).

Usually Kd stands for a measure of binding affinity in units of concentration.

One assay has as its target HLA-A*29:02. The assay is described as follows: IEDB peptide-MHC binding, purified MHC/competitive/fluorescence; filed as Kd, often an IC50 or EC50 that approximates it; ≥ and ≤ were set here for values at or beyond the usual limits of such assays.
The next assay deals with HLA-B*27:03. Described as above.
In another assay the target is HLA-A*03:01. Described as above.
The next assay deals with HLA-B*46:01. The description is as above.
In assay [1] the target is HLA-B*57:01. Described as above.
Another assay addresses HLA-B*15:01. The assay is described as above.
Assay [2] has as its target HLA-A*02:01. The description is as above.
The next assay has as its target HLA-B*39:01. Described as above.
The target in assay [3] is HLA-B*18:01. The description is as above.
The target in assay [4] is HLA-A*26:01. Described as above.
The target in assay [5] is HLA-B*15:17. The assay is described as above. To be noted: source organism: Rickettsia felis URRWXCal2.
Another assay concerns the target HLA-A*02:19. Described as above.
Another assay concerns the target HLA-B*51:01. The description is as above.
The target in another assay is HLA-A*24:02. Briefly: IEDB peptide-MHC binding, purified MHC/direct/fluorescence; filed as Kd, often an IC50 or EC50 that approximates it; ≥ and ≤ were set here for values at or beyond the usual limits of such assays. The following applies: source organism: Giardia lamblia ATCC 50803.
The next assay addresses HLA-C*05:01. The assay is described as above. To be noted: source organism: Influenza A virus (A/Harbin/1/1988(H1N2)).
The target of another assay is HLA-B*35:01. Briefly: IEDB peptide-MHC binding, purified MHC/competitive/fluorescence; filed as Kd, often an IC50 or EC50 that approximates it; ≥ and ≤ were set here for values at or beyond the usual limits of such assays.
Assay [6] addresses HLA-B*07:02. The description is as above. To be noted: source organism: Influenza A virus (A/Harbin/1/1988(H1N2)).
The next assay deals with HLA-A*02:03. Described as above. To be noted: source organism: Cryptosporidium parvum Iowa II.
Assay [7] deals with HLA-A*69:01. Described as above. To be noted: source organism: Cryptosporidium parvum Iowa II.
The next assay deals with HLA-A*02:16. The assay is described as above. To be noted: source organism: Cryptosporidium parvum Iowa II.
In the next assay the target is HLA-A*02:12. Described as above. To be noted: source organism: Cryptosporidium parvum Iowa II.
For assay [8], the target named is HLA-A*68:02. Described as above. To be noted: source organism: Cryptosporidium parvum Iowa II.
Assay [9] addresses HLA-A*26:01. The assay is described as follows: IEDB peptide-MHC binding, purified MHC/direct/fluorescence; filed as Kd, often an IC50 or EC50 that approximates it; ≥ and ≤ were set here for values at or beyond the usual limits of such assays. To be noted: source organism: Orthomarburgvirus marburgense.
The next assay concerns the target HLA-A*11:01. The assay is described as above. To be noted: source organism: Lake Victoria marburgvirus - Popp.
For assay [10], the target named is HLA-B*07:02. The assay is described as above. To be noted: source organism: Lake Victoria marburgvirus - Popp.
The target in assay [11] is HLA-B*57:01. The description is as above. To be noted: source organism: Lake Victoria marburgvirus - Popp.
Assay [12] has as its target HLA-A*69:01. Described as above. To be noted: source organism: Lake Victoria marburgvirus - Popp.
The target of assay [13] is HLA-A*02:01. Described as above. The following applies: source organism: Lake Victoria marburgvirus - Popp.
Assay [14] concerns the target HLA-B*15:17. The assay is described as above. To be noted: source organism: Lake Victoria marburgvirus - Popp.
The target of another assay is HLA-B*58:01. Described as above. To be noted: source organism: Lake Victoria marburgvirus - Popp.
Another assay addresses HLA-A*01:01. The assay is described as above. To be noted: source organism: Lake Victoria marburgvirus - Popp.
The next assay addresses HLA-B*40:01. The description is as above. The following applies: source organism: Lake Victoria marburgvirus - Popp.
The target in another assay is HLA-B*15:09. The assay is described as above. To be noted: source organism: Orthomarburgvirus marburgense.
A further assay concerns the target HLA-B*27:05. Described as above. The following applies: source organism: Lake Victoria marburgvirus - Popp.
Assay [15] deals with HLA-B*18:01. Described as above. To be noted: source organism: Lake Victoria marburgvirus - Popp.
Assay [16] deals with HLA-A*68:02. The description is as above. To be noted: source organism: Lake Victoria marburgvirus - Popp.
A further assay addresses HLA-A*31:01. Described as above. To be noted: source organism: Lake Victoria marburgvirus - Popp.
In another assay the target is HLA-B*08:01. The assay is described as above. The following applies: source organism: Orthomarburgvirus marburgense.
Another assay addresses HLA-B*48:01. Briefly: IEDB peptide-MHC binding, purified MHC/competitive/fluorescence; filed as Kd, often an IC50 or EC50 that approximates it; ≥ and ≤ were set here for values at or beyond the usual limits of such assays. The following applies: source organism: Orthomarburgvirus marburgense.
The next assay has as its target HLA-A*30:01. The assay is described as above. To be noted: source organism: Orthomarburgvirus marburgense.
Setting [17] is: source organism: Rickettsia felis URRWXCal2.
Setting [18] is: source organism: Influenza A virus (A/Harbin/1/1988(H1N2)).
Setting [19] is: source organism: Cryptosporidium parvum Iowa II.
The mark [20] stands for this setting: source organism: Influenza A virus (A/Aichi/2/1994(H3N2)).

As to VVPSYIPLV, the Kd with HLA-A*29:02 (source organism: Homo sapiens), with HLA-B*27:03 (source organism: Homo sapiens), with HLA-A*03:01 (source organism: Homo sapiens), with HLA-B*46:01 (source organism: Homo sapiens), with HLA-B*57:01 [1] (source organism: Homo sapiens) and with HLA-B*15:01 (source organism: Homo sapiens) was ≥ 20 µM each time. Also, the Kd was 0.0007 µM in the assay with HLA-A*02:01 [2] (source organism: Homo sapiens), ≥ 20 µM in the assay with HLA-B*39:01 (source organism: Homo sapiens) and ≥ 20 µM with HLA-B*18:01 [3] (source organism: Homo sapiens).

Take QYLFSLTYV: the Kd in the assay with HLA-A*29:02 (setting [17]) was 8 µM; with HLA-A*26:01 [4] (setting [17]), ≥ 20 µM; with HLA-B*27:03 (setting [17]) it was ≥ 20 µM; with HLA-A*03:01 (setting [17]), ≥ 20 µM; with HLA-B*46:01 (setting [17]), ≥ 20 µM; in the assay with HLA-B*57:01 [1] (setting [17]), ≥ 20 µM. Moreover, the dissociation constant (Kd) in the assay with HLA-B*15:01 (setting [17]) is ≥ 20 µM; with HLA-A*02:01 [2] (setting [17]) it was 1.19 µM; with HLA-B*15:17 [5] it was ≥ 20 µM; in the assay with HLA-A*02:19 (setting [17]), ≥ 20 µM; with HLA-B*39:01 (setting [17]), ≥ 20 µM; in the assay with HLA-B*51:01 (setting [17]), ≥ 20 µM.

RYMRVYNLW gave a dissociation constant (Kd) in the assay with HLA-A*24:02 of 0.002 µM.

As for LPFQNVHPV, the dissociation constant (Kd) with HLA-C*05:01 is ≥ 20 µM; with HLA-B*35:01 (setting [18]), 0.0004 µM; with HLA-B*07:02 [6], 0.161 µM; in the assay with HLA-B*51:01 (setting [18]), 1.49 µM.

As to KSFSAGMFH, the Kd is ≥ 20 µM with HLA-A*29:02 (setting [19]); ≥ 20 µM with HLA-A*26:01 [4] (setting [19]); ≥ 20 µM with HLA-A*02:03; ≥ 20 µM with HLA-B*27:03 (setting [19]); ≥ 20 µM with HLA-B*46:01 (setting [19]); 0.574 µM with HLA-B*57:01 [1] (setting [19]). Besides, the Kd in the assay with HLA-A*69:01 [7], with HLA-A*02:01 [2] (setting [19]), in the assay with HLA-A*02:16, in the assay with HLA-A*02:19 (setting [19]), in the assay with HLA-A*02:12 and in the assay with HLA-B*39:01 (setting [19]) was ≥ 20 µM each time. For the same sequence, the Kd with HLA-B*51:01 (setting [19]), in the assay with HLA-B*18:01 [3] (setting [19]) and in the assay with HLA-A*68:02 [8] was ≥ 20 µM throughout.

Regarding FQNVNRITY, the figures for the dissociation constant (Kd) with HLA-B*35:01 (setting [20]) and with HLA-B*15:01 (setting [20]) were 0.0394 µM and 0.0751 µM, respectively.

On to GELRKAICL, for which the Kd with HLA-A*26:01 [9], with HLA-A*11:01, with HLA-B*07:02 [10], in the assay with HLA-B*57:01 [11], with HLA-A*69:01 [12] and with HLA-A*02:01 [13] was ≥ 20 µM in each case. The Kd in the assay with HLA-B*15:17 [14] was ≥ 20 µM; with HLA-B*58:01 it was ≥ 20 µM; with HLA-A*01:01, ≥ 20 µM; with HLA-B*40:01, 0.074 µM; with HLA-B*15:09, ≥ 20 µM; with HLA-B*27:05, ≥ 20 µM. In addition, the Kd was 9 µM in the assay with HLA-B*18:01 [15]; ≥ 20 µM with HLA-A*68:02 [16]; ≥ 20 µM with HLA-A*31:01; ≥ 20 µM with HLA-B*08:01; ≥ 20 µM with HLA-B*48:01; ≥ 20 µM with HLA-A*30:01.
